From US20240409629A1 (CHIA TAI TIANQING PHARMACEUTICAL GROUP, published 2024)
Positions count from the first letter of the chain named.

B1: humanized antibody hz28G3-1.1 (antibody, human IgG1, kappa, V domains shown)
VH: QVQLVQSGAEVKKPGASVKVSCKTSGYSFTDYLMLWVRQAPGQGLEWMGNINPYYGRTTYALKFKGRVTMTVDRSTSTVYMELSSLRSEDTAVYYCARDGYSLRNAMDYWGQGTLVTVSS
VL: DIVMTQSPDSLAVSLGERATINCKSSQSLFNSGNQKNYLAWYQQKPGQPPKLLIYGASTRESGVPDRFSGSGSGTDFTLTISSLQAEDVAVYYCQNAHSYPYTFGQGTKVEIKR
B2: humanized antibody hz28G3-2.2 (antibody, human IgG1, kappa, V domains shown)
VH: B1 VH with T24A, S28T, T59Y, K65Q
VL: B1 VL with D9Y, S69T
B3: humanized antibody hz28G3-1.2 (antibody, human IgG1, kappa, V domains shown)
VH: B1 VH with T24A, S28T, T59Y, K65Q
VL: B1 VL
B4: humanized antibody hz28G3-2.4 (antibody, human IgG1, kappa, V domains shown)
VH: B1 VH with T24A, S28T, P41H, G44S, T59Y, K65Q
VL: B1 VL with D9Y, S69T
B5: humanized antibody hz28G3-2.1 (antibody, human IgG1, kappa, V domains shown)
VH: B1 VH
VL: B1 VL with D9Y, S69T
B6: humanized antibody hz28G3-1.4 (antibody, human IgG1, kappa, V domains shown)
VH: B1 VH with T24A, S28T, P41H, G44S, T59Y, K65Q
VL: B1 VL
B7: humanized antibody hz28G3-1.3 (antibody, human IgG1, kappa, V domains shown)
VH: B1 VH with P41H, G44S
VL: B1 VL
B8: humanized antibody hz28G3-2.3 (antibody, human IgG1, kappa, V domains shown)
VH: B1 VH with P41H, G44S
VL: B1 VL with D9Y, S69T
B9: humanized antibody hz40F6-1.3 (antibody, human IgG1, kappa, V domains shown)
VH: QVQLVESGGGVVQPGRSLRLSCAASGFTLTSYGVYWVRQAPGKGLEWVAVVWAGGNTNYADALKGRFTISKDNSKSTLYLQMNSLRAEDTAVYYCARDRGRLLAMDYWGQGTLVTVSS
VL: B1 VL with F30L, S69T, A97D, S99F, Y100F, Y102F
B10: humanized antibody hz40F6-2.2 (antibody, human IgG1, kappa, V domains shown)
VH: B9 VH with A60N, D61S, K64M, G65S
VL: B1 VL with F30L, A97D, H98Y, S99F, Y100F, Y102F
B11: humanized antibody hz40F6-1.2 (antibody, human IgG1, kappa, V domains shown)
VH: B9 VH with A60N, D61S, K64M, G65S
VL: B1 VL with F30L, S69T, A97D, S99F, Y100F, Y102F
B12: humanized antibody hz40F6-2.1 (antibody, human IgG1, kappa, V domains shown)
VH: B9 VH with A62S, L63V
VL: B1 VL with F30L, A97D, H98Y, S99F, Y100F, Y102F
B13: humanized antibody hz40F6-2.4 (antibody, human IgG1, kappa, V domains shown)
VH: B9 VH with A23T, A24V, A60N, D61S
VL: B1 VL with F30L, A97D, H98Y, S99F, Y100F, Y102F
B14: humanized antibody hz40F6-1.1 (antibody, human IgG1, kappa, V domains shown)
VH: B9 VH with A62S, L63V
VL: B1 VL with F30L, S69T, A97D, S99F, Y100F, Y102F
B15: humanized antibody hz40F6-1.4 (antibody, human IgG1, kappa, V domains shown)
VH: B9 VH with A23T, A24V, A60N, D61S
VL: B1 VL with F30L, S69T, A97D, S99F, Y100F, Y102F
B16: humanized antibody hz40F6-2.3 (antibody, human IgG1, kappa, V domains shown)
VH: B9 VH
VL: B1 VL with F30L, A97D, H98Y, S99F, Y100F, Y102F
B17: 15F9 (antibody, human IgG1, kappa, V domains shown)
VH: QVQLVQSGSELKKPGASVKVSCKASGYTFTNYGINWVRQAPGQGLEWMGWINPNTGETTYAEEFKGRFVFSLDTSVSTAYLQISSLKAEDTAVYFCARLYYGNRFDSWGQGTLVTVSS
VL: B1 VL with F30L, K36R, A40T, G56W, H98Y, S99Y, Y102L, Q106G

What follows are binders tested against T1, human CLDN18.2 (human) (assay: FACS, NUGC-4 cells (natural CLDN18.2)).
T1 construct: also called claudin18.2
Method: (§1) Based on the FACS method, the binding activity of anti-CLDN18.2 humanized antibodies for the cell lines KATOIII (Cell Bank of the Chinese Academy of Sciences) and NUGC-4 (Cell Bank of the Chinese Academy of Sciences) naturally expressing CLDN18.2 was analyzed. […] See Example 3 for the specific method.

Binder | EC50 [nM]
B1 | 11.1
B2 | 12.4
B3 | 14.1
B4 | 14.2
B5 | 12.1
B6 | 14
B7 | 10.5
B8 | 11.9

What follows are binders tested against T1, human CLDN18.2 (assay: FACS, KATOIII cells (natural CLDN18.2)).
Method: as §1

Binder | EC50 [nM]
B9 | 7.9
B10 | 7.54
B11 | 7.42
B12 | 8.77
B13 | 6.38
B14 | 8.24
B15 | 6.44
B16 | 6.13

The binders below were run against T1, human CLDN18.2 (assay: cell-based or functional assay).

Binder | ADCC EC50, Jurkat-CD16a v158-NFAT-luciferase effector cells, NIH-3T3-CLDN18.2 target cells [nM] | ADCC EC50, Jurkat-CD16a v158-NFAT-luciferase effector cells, NUGC-4 target cells [nM]
B9 | 0.017 | 0.023
B10 | 0.01 | 0.019
B11 | 0.03 | 0.019
B12 | 0.012 | 0.149
B13 | 0.014 | 0.03
B14 | 0.013 | 0.045
B15 | 0.024 | 0.017
B16 | 0.014 | 0.028

Molecular target: T1, human CLDN18.2
Test: cell-based or functional assay
Remark: another data set of the same source

Binder | ADCC EC50, Jurkat-CD16a v158-NFAT-luciferase effector cells, KATOIII target cells [nM] | ADCC EC50, Jurkat-CD16a v158-NFAT-luciferase effector cells, U2OS-CLDN18.2 target cells [nM]
B1 | 0.139 | 0.016
B2 | 0.861 | 0.017
B3 | 0.396 | 0.015
B4 | 0.275 | 0.017
B5 | 0.184 | 0.019
B6 | 0.184 | 0.017
B7 | 0.217 | 0.023
B8 | 0.209 | 0.019

Molecular target: T1, human CLDN18.2
Test: cell-based or functional assay
Remark: another data set of the same source

Binder | ADCC EC50, PBMC effector cells, KATOIII target cells [nM] | ADCC Maximum killing (%), PBMC effector cells, KATOIII target cells [%]
B17 | ~0.0155 | 19.5

Molecular target: T1, human CLDN18.2
Test: FACS, KATOIII cells (natural CLDN18.2)
Remark: another data set of the same source
Method: as §1

Binder | EC50 [nM]
B1 | 8.11
B2 | 5.92
B3 | 5.84
B4 | 5.62
B5 | 7.25
B6 | 5.83
B7 | 7.01
B8 | 6.54

Molecular target: T1, human CLDN18.2
Test: cell-based or functional assay
Remark: another data set of the same source

Binder | ADCC EC50, PBMC effector cells, KATOIII target cells [nM] | ADCC EC50, PBMC effector cells, NIH-3T3-CLDN18.2 target cells [nM] | ADCC EC50, PBMC effector cells, NUGC-4 target cells [nM] | ADCC Maximum killing (%), PBMC effector cells, KATOIII target cells [%] | ADCC Maximum killing (%), PBMC effector cells, NIH-3T3-CLDN18.2 target cells [%] | ADCC Maximum killing (%), PBMC effector cells, NUGC-4 target cells [%]
B1 | 0.048 | 0.33 | 0.07 | 11.5 | 28.1 | 4.9
B17 | 0.03 | 0.18 | 0.3 | 10.6 | 22.6 | 4.34
B15 | 0.1 | 0.31 | 0.12 | 13.3 | 24.6 | 2.83
B7 | 1.03 | 0.51 | 4.6 | 25.3 | 44.3 | 19

Molecular target: T1, human CLDN18.2
Test: cell-based or functional assay
Remark: another data set of the same source

Binder | CDC EC50, NIH-3T3-CLDN18.2 target cells [nM]
B1 | 0.29
B17 | 0.25
B7 | 0.31

Molecular target: T1, human CLDN18.2
Test: cell-based or functional assay
Remark: another data set of the same source

Binder | CDC EC50, NIH-3T3-CLDN18.2 target cells [nM]
B9 | 0.84
B10 | 0.53
B11 | 0.54
B12 | 3.8
B13 | 0.89
B14 | 1.47
B15 | 0.55
B16 | 0.9

Molecular target: T1, human CLDN18.2
Test: FACS, NUGC-4 cells (natural CLDN18.2)
Remark: another data set of the same source
Method: as §1

Binder | EC50 [nM]
B9 | 17.7
B10 | 14.9
B11 | 16
B12 | 18.7
B13 | 13.3
B14 | 20
B15 | 10.6
B16 | 16.2
